Data published in patent US20110064726A1 (published 2011).

Tests used:
cynomolgus monkey IgE [1] = biological target: T1, cynomolgus monkey IgE (cynomolgus monkey); experiment: capture ELISA, antibody coated; Test 1, Cyno 1 serum
T1 construct: serum was used as the source of IgE; also called cynomolgus IgE; cyno IgE
Protocol: (§1) Wells were washed once with 150 μL/well wash buffer (0.05% Tween-20, Sigma, Cat. No. P7949/TBS) then blocked with 150 μL/well 1% BSA (Sigma, Cat. No. A7030) in TBS for 2 hours at room temperature. Wells were washed twice with 150 μL wash buffer. 50 μL human (in-house donors) or cynomolgus serum (Harlan Sera-Lab Ltd, Loughborough) was added from neat to at least 1:16 dilution in 1% BSA/0.05% Tween-20/TBS diluent buffer. […] Wells were incubated for 2 hours at 25° C. before washing (3×150 μLwash buffer). […] Wells were incubated for 1 hour at 25° C. then washed (3×150 μL wash buffer). Streptavidin-HRP (Amersham Bioscience, Cat. No. RPN 1231) diluted 1:1000 in diluent buffer was added to all wells and incubated for 45 minutes at room temperature. Wells were washed (3×150 μL wash buffer). […] OPD (Dako, Cat. No. S2045) was added to all wells and the color allowed to develop for 10 minutes before stopping the reaction with 50 μl 0.6M H₂SO₄ and the absorbance measured at 490 nm.

cynomolgus monkey IgE [2] = biological target: T1, cynomolgus monkey IgE; experiment: capture ELISA, antibody coated; Test 1, Cyno 2 serum
Protocol: as §1

cynomolgus monkey IgE [3] = biological target: T1, cynomolgus monkey IgE; experiment: capture ELISA, antibody coated; Test 1, Cyno 3 serum
Protocol: as §1

cynomolgus monkey IgE [4] = biological target: T1, cynomolgus monkey IgE; experiment: capture ELISA, antibody coated; Test 1, Cyno 4 serum
Protocol: as §1

cynomolgus monkey IgE [5] = biological target: T1, cynomolgus monkey IgE; experiment: capture ELISA, antibody coated; Test 1, Cyno 5 serum
Protocol: as §1

cynomolgus monkey IgE [6] = biological target: T1, cynomolgus monkey IgE; experiment: capture ELISA, antibody coated; Test 1, Cyno 6 serum
Protocol: as §1

cynomolgus monkey IgE [7] = biological target: T1, cynomolgus monkey IgE; experiment: capture ELISA, antibody coated; Test 1, Cyno 7 serum
Protocol: as §1

human IgA = biological target: T2, human IgA (human); experiment: ELISA, immunoglobulin coated at 4 µg/mL, anti-human IgG2 detection
T2 construct: bought preparation coated on the ELISA plate
Protocol: (§2) Wells were washed 3× with 150 μL wash buffer (0.05% Tween-20 (Sigma, Cat. No. P7949)/PBS) then blocked with 150 μL/well blocking buffer (2.5% BSA (Sigma, Cat. No. A7030)/PBS) for 2 hours at room temperature. Wells were washed 3× with 150 μL wash buffer/well. […] Antibodies were diluted in diluent buffer (PBS/1% BSA/0.05% Tween-20) and this was added to blank control wells (duplicate wells for each secondary antibody used). Antibodies were incubated for 2 hours at room temperature. Wells were washed 3× with 150 μL wash buffer/well. Binding of control antibodies to immunoglobulin was detected with anti-mouse IgG-HRP conjugate (Sigma, Cat. No. A4416) diluted 1:8000 in diluent buffer. 50 μL/well was added to control antibody and blank wells. Wells were incubated for 1 hour at room temperature, then washed 3× with 150 μL wash buffer/well. 50 μl OPD (Dako, Cat. No. […] Wells were incubated for 1 hour at room temperature then washed 3× with 150 μL wash buffer/well. Streptavidin-HRP (Amersham Bioscience, Cat. No. RPN 1231) diluted 1:2000 in diluent buffer was added to all wells and incubated for 45 minutes at room temperature. Wells were washed (3×150 μL wash buffer).

human IgG1 = biological target: T3, human IgG1 (human, UniProt P01857-1 1-330 = IgG part); experiment: as above
T3 construct: bought preparation coated on the ELISA plate; not shown: bought immunoglobulin, light chain not described
T3 sequence (P01857 other isoform, or with tags, fused parts or gaps): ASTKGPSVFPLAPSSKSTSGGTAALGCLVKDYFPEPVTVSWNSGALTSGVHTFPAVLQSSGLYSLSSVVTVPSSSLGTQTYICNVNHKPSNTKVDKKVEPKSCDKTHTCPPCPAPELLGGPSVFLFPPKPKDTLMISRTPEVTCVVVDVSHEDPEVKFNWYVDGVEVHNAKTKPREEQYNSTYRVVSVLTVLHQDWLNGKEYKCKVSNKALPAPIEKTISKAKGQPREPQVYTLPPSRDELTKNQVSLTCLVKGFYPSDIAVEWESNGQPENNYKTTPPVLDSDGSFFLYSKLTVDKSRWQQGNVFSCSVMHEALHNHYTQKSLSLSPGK
Protocol: as §2

human IgG3 = biological target: T4, human IgG3 (human, UniProt P01860-1 1-377); experiment: as above
T4 construct: bought preparation coated on the ELISA plate; not shown: bought immunoglobulin, light chain not described
T4 sequence (P01860 other isoform, or with tags, fused parts or gaps): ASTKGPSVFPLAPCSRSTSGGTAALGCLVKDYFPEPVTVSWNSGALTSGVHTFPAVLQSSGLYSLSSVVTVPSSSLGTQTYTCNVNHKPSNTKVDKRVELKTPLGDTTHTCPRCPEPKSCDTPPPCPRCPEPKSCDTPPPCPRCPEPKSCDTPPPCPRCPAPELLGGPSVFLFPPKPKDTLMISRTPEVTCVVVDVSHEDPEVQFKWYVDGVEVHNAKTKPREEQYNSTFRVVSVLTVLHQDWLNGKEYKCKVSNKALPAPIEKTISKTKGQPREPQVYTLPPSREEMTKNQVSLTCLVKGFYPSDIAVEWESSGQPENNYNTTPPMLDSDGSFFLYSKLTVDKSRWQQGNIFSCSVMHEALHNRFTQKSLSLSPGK
Protocol: as §2

cynomolgus monkey IgE [8] = biological target: T1, cynomolgus monkey IgE; experiment: capture ELISA, antibody coated; Test 2, Cyno 1 serum
Protocol: as §1

cynomolgus monkey IgE [9] = biological target: T1, cynomolgus monkey IgE; experiment: capture ELISA, antibody coated; Test 2, Cyno 2 serum
Protocol: as §1

cynomolgus monkey IgE [10] = biological target: T1, cynomolgus monkey IgE; experiment: capture ELISA, antibody coated; Test 2, Cyno 3 serum
Protocol: as §1

cynomolgus monkey IgE [11] = biological target: T1, cynomolgus monkey IgE; experiment: capture ELISA, antibody coated; Test 2, Cyno 4 serum
Protocol: as §1

cynomolgus monkey IgE [12] = biological target: T1, cynomolgus monkey IgE; experiment: capture ELISA, antibody coated; Test 2, Cyno 5 serum
Protocol: as §1

cynomolgus monkey IgE [13] = biological target: T1, cynomolgus monkey IgE; experiment: capture ELISA, antibody coated; Test 2, Cyno 6 serum
Protocol: as §1

cynomolgus monkey IgE [14] = biological target: T1, cynomolgus monkey IgE; experiment: capture ELISA, antibody coated; Test 2, Cyno 7 serum
Protocol: as §1

cynomolgus monkey IgE [15] = biological target: T1, cynomolgus monkey IgE; experiment: capture ELISA, antibody coated; Test 2, Cyno 8 serum
Protocol: as §1

[16] = biological target: T5, human IgE (full length human immunoglobulin E) (human, UniProt P01854 1-546); experiment: ELISA, immunoglobulin coated at 4 µg/mL, anti-human IgG2 detection
T5 sequence (P01854 whole entry): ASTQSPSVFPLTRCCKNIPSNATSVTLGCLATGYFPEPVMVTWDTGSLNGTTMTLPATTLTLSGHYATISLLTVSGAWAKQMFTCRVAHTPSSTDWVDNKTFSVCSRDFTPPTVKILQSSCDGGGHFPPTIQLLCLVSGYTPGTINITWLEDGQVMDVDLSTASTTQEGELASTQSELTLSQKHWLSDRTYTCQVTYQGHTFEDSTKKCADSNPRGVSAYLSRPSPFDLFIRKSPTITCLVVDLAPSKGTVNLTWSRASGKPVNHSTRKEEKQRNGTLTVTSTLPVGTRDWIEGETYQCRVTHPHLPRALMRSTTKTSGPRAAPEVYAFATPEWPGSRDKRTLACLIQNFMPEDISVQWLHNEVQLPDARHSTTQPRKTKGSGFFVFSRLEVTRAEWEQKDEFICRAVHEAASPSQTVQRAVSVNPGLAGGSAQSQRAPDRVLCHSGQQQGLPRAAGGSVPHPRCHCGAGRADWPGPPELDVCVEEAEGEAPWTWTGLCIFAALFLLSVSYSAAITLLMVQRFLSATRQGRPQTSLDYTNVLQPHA
Protocol: as §2

[17] = biological target: T5, human IgE (full length human …); experiment: serum free IgE depletion ELISA; DIN 0155, initial free IgE 93 ng/mL
[18] = biological target: T5, human IgE (full length human …); experiment: serum free IgE depletion ELISA; DIN 0461, initial free IgE 80 ng/mL
[19] = biological target: T5, human IgE (full length human …); experiment: serum free IgE depletion ELISA; DIN 0649, initial free IgE 93 ng/mL
[20] = biological target: T5, human IgE (full length human …); experiment: serum free IgE depletion ELISA; DIN 0347, initial free IgE 221 ng/mL
[21] = biological target: T5, human IgE (full length human …); experiment: serum free IgE depletion ELISA; DIN 0591, initial free IgE 152 ng/mL
[22] = biological target: T5, human IgE (full length human …); experiment: serum free IgE depletion ELISA; DIN 0011 experiment 2, initial free IgE 326 ng/mL
[23] = biological target: T5, human IgE (full length human …); experiment: serum free IgE depletion ELISA; DIN 0321 experiment 2, initial free IgE 265 ng/mL
[24] = biological target: T5, human IgE (full length human …); experiment: serum free IgE depletion ELISA; DIN 0451 experiment 2, initial free IgE 534 ng/mL
[25] = biological target: T5, human IgE (full length human …); experiment: serum free IgE depletion ELISA; DIN 0623 experiment 2, initial free IgE 133 ng/mL
[26] = biological target: T5, human IgE (full length human …); experiment: serum free IgE depletion ELISA; DIN 0632 experiment 2, initial free IgE 289 ng/mL

IgE concentration detected (cynomolgus monkey IgE [1])	IgE concentration detected (cynomolgus monkey IgE [2])	IgE concentration detected (cynomolgus monkey IgE [3])	IgE concentration detected (cynomolgus monkey IgE [4])	IgE concentration detected (cynomolgus monkey IgE [5])	IgE concentration detected (cynomolgus monkey IgE [6])	IgE concentration detected (cynomolgus monkey IgE [7])	A290 nm (human IgA)	A290 nm (human IgG1)	A290 nm (human IgG3)	IgE concentration detected (cynomolgus monkey IgE [8])	IgE concentration detected (cynomolgus monkey IgE [9])	IgE concentration detected (cynomolgus monkey IgE [10])	IgE concentration detected (cynomolgus monkey IgE [11])	IgE concentration detected (cynomolgus monkey IgE [12])	IgE concentration detected (cynomolgus monkey IgE [13])	IgE concentration detected (cynomolgus monkey IgE [14])	IgE concentration detected (cynomolgus monkey IgE [15])	Binder	further results
120 ng/mL	91 ng/mL	107 ng/mL	0 ng/mL	140 ng/mL	0 ng/mL	0 ng/mL	0.04 absorbance	0.07 absorbance	0.05 absorbance	–	–	–	–	–	–	–	–	recombinant 6.605.1 (antibody, human IgG2, kappa, V domains shown, human IgG2 kappa; also called 6.605.1 (recombinant)) VH: QVHLVQSGAEVKMPGASVKVSCKASGYTFTSYGISWVRQAPGQGLEWMGWISAYNGNTNYAQKLQGRITMTTDTSTSTAYMDLRSLRSDDTAVYYCARDGDYYDPFDYWGQGTLVTVSS VL: DIQMTQSPSSLSASVGDRVTITCRTSQSISNWLNWYQQKPGKAPKLLIYGASTLKSGVPSRFSGSESGTDFTLTISSLQPEDFATYYCQQSYSTPPTFGQGTKVEIKR	–
133 ng/mL	103 ng/mL	122 ng/mL	0 ng/mL	173 ng/mL	–	0 ng/mL	0.04 absorbance	0.07 absorbance	0.04 absorbance	–	–	–	–	–	–	–	–	6.605.1 Hc-H3Q,M13K,D82E Lc-T25A,T53S (antibody, human IgG2, kappa, V domains shown, human IgG2 kappa; the entries already hold the substitutions; also called 6.605.1 (H3Q,M13K,D82E-T25A,T53S); 6.605.1 QKE/AS) VH: QVQLVQSGAEVKKPGASVKVSCKASGYTFTSYGISWVRQAPGQGLEWMGWISAYNGNTNYAQKLQGRITMTTDTSTSTAYMELRSLRSDDTAVYYCARDGDYYDPFDYWGQGTLVTVSS VL: DIQMTQSPSSLSASVGDRVTITCRASQSISNWLNWYQQKPGKAPKLLIYGASSLKSGVPSRFSGSESGTDFTLTISSLQPEDFATYYCQQSYSTPPTFGQGTKVEIKR	–
30 ng/mL	0 ng/mL	–	0 ng/mL	37 ng/mL	3 ng/mL	0 ng/mL	0.04 absorbance	0.07 absorbance	0.05 absorbance	–	–	–	–	–	–	–	–	recombinant 5.396.1 (antibody, human IgG2, kappa, V domains shown, human IgG2 kappa, expressed in 293 Freestyle cells; also called 5.396.1 (recombinant)) VH: QVQLQQWGAGLLKPSETLSLTCAVYGGSFSGYYWSWIRQPPGKGLEWIGEIHHSGSTNYNPSLKSRVTISVDTSKNQFSLKLSSVTAADTAVYYCARDNWNDSFYYYYGMDVWGQGTTVTVSS VL: DIQMTQSPSSLSASVGDRVTITCRASQGISNHLAWFQQKPGKAPKSLIYAASSLQSGVPSKFSGSGSGTDFTLTISSLQPEDFATYYCQQYNRHPFTFGPGTKVDIKR	–
41 ng/mL	0 ng/mL	39 ng/mL	0 ng/mL	57 ng/mL	0 ng/mL	0 ng/mL	0.04 absorbance	0.08 absorbance	0.05 absorbance	57 ng/mL	39 ng/mL	53 ng/mL	0 ng/mL	102 ng/mL	0 ng/mL	0 ng/mL	0 ng/mL	5.396.1 Hc-S103N Lc-K61R (antibody, human IgG2, kappa, V domains shown, human IgG2 kappa; the entries already hold the substitutions S103N (Hc) and K61R (Lc); also called 5.396.1 (S103N/K61R); 5.396.1 N/R) VH: QVQLQQWGAGLLKPSETLSLTCAVYGGSFSGYYWSWIRQPPGKGLEWIGEIHHSGSTNYNPSLKSRVTISVDTSKNQFSLKLSSVTAADTAVYYCARDNWNDNFYYYYGMDVWGQGTTVTVSS VL: DIQMTQSPSSLSASVGDRVTITCRASQGISNHLAWFQQKPGKAPKSLIYAASSLQSGVPSRFSGSGSGTDFTLTISSLQPEDFATYYCQQYNRHPFTFGPGTKVDIKR	–
–	–	–	–	–	–	–	0.05 absorbance	0.06 absorbance	0.06 absorbance	170 ng/mL	199 ng/mL	178 ng/mL	25 ng/mL	420 ng/mL	39 ng/mL	0 ng/mL	36 ng/mL	5.948.1 Hc-H100Y (antibody, human IgG2, kappa, V domains shown, human IgG2 kappa; the heavy chain entry already holds H100Y; also called 5.948.1 H100Y; 5.948.1 (H100Y)) VH: QVQLVQSGAEVKKPGASVKVSCKASGYTFTSYDINWVRQATGQGLEWMGWMDPNSGNTGYAQKFQGRVTMTRNTSISTAYMELSSLRSEDTAVYYCARGYYDSDGYYSFSGMDVWGQGTTVTVSS VL: not shown	A290 nm [16]: 1.05 absorbance; IC25ng/mL [17]: 0.34 µg/mL; IC25ng/mL [18]: 0.34 µg/mL; IC25ng/mL [19]: 0.39 µg/mL; IC25ng/mL [20]: 1.33 µg/mL; IC25ng/mL [21]: 0.55 µg/mL; IC25ng/mL [22]: 2.96 µg/mL; IC25ng/mL [23]: 2.55 µg/mL; IC25ng/mL [24]: 10.5 µg/mL; IC25ng/mL [25]: 0.76 µg/mL; IC25ng/mL [26]: 2.29 µg/mL
